Measured values as given in patent US20050272637A1 (OREGON HEALTH AND SCIENCE UNIVERSITY, published 2005).
Where a chain is given by its changes, count along the chain named.

B1: RBD Int8 polypeptide (intron 8-encoded receptor binding domain of herstatin, expressed as a bacterial peptide) (peptide)
chain: GTHSLPPRPAAVPVPLRMQPGPAHPVLSFLRPSWDLVSAFYSLPLAPLSPTSVPISPVSVGRGPDPDAHVAVDLSRYEG
notes: Purified from BL-21 bacteria; also called Int8 RBD polypeptide; Int8 peptide; not shown: pET 30 vector-encoded tags (His tag used for nickel purification, S-protein tag used for immobilisation)
B2: mutant Int8 polypeptide with Arg to Ile mutation at residue 31 (peptide, not shown: small tags and cut ends)
chain: B1 chain with R31I
notes: also called mutant RBD Int8 polypeptide; mutant Int8 RBD polypeptide

Tests used:
[1] = target: HER-4 (erbB-4), human receptor (human, UniProt Q15303 26-1308); experiment: ELISA of Int8 bound to transfected cells (FIG. 3B)
Description: (§1) ELISA. […] Cells were washed with Phosphate Buffered Saline (PBS) and extracted in 50 mM Tris-HCl, pH 7.0, 1.0% NP-40.

[2] = target: T1, IGF-1R, insulin-like growth factor 1 receptor (human, UniProt P08069 31-1367); experiment: saturation binding to IGF-IR 3T3 cells, herstatin ELISA (determination of EXAMPLE 2)
T1 construct: On IGF-IR transfected 3T3 cells (hIGF-1R-3T3) in cell ELISA, or from their extracts in pull-downs (detected through the beta subunit); The entry is the precursor; the processing into alpha and beta subunits is not described; also called IGF-IR; IGF-1 receptor
Description: as §1
(§2) Statistical comparisons between different binding curves were performed by extra sums-of-squares F-test nonlinear regression coefficients. All tests were performed (α=0.05) using GraphPad Prism 4™ software (GraphPad™ Software, 1994-2003).

[3] = target: T2, HER-2 (erbB-2), human receptor (human, UniProt P04626 23-1255); experiment: saturation binding to HER-2/3T3 cells, herstatin ELISA, nonlinear regression (FIG. 5B)
T2 construct: On HER-2-transfected Cos-7 cells or 3T3/HER-2 cells (cell ELISA), or from transfected Cos-7 cell extracts (pull-down)
Description: as §1, §2

[4] = target: T1, IGF-1R, insulin-like growth factor 1 …; experiment: saturation binding to IGF-IR/3T3 cells, herstatin ELISA, nonlinear regression (FIG. 5B)
Description: as §1, §2

[5] = target: T1, IGF-1R, insulin-like growth factor 1 …; experiment: saturation binding to IGF-IR transfected 3T3 cells, herstatin ELISA, nonlinear regression
Description: as §1, §2

[6] = target: T3, EGFR (HER-1, erbB-1), human epidermal growth factor receptor (human, UniProt P00533 25-1210); experiment: saturation binding to EGFR-transfected Cos-7 cells, herstatin ELISA, nonlinear regression (FIG. 5A)
T3 construct: also called EGF receptor
Description: as §1, §2

[7] = target: T2, HER-2 (erbB-2), human receptor; experiment: saturation binding to HER-2-transfected Cos-7 cells, herstatin ELISA, nonlinear regression (FIG. 5A)
Description: as §1, §2

[8] = target: T2, HER-2 (erbB-2), human receptor; experiment: herstatin ELISA of peptide bound to HER-2 overexpressing cells
Description: as §1

[9] = target: T2, HER-2 (erbB-2), human receptor; experiment: pull-down of HER-2 from transfected cell extracts, Western blot
Description: Methods. Cell lines, expression vectors, protein purification, pull down assays, antibodies and ELISA assays were as described under EXAMPLE 1, herein above. […] Following washing steps, the protein bound to the agarose was analyzed as a Western blot with receptor-specific antibodies.

T1 sequence (P08069 31-1367 limits assumed): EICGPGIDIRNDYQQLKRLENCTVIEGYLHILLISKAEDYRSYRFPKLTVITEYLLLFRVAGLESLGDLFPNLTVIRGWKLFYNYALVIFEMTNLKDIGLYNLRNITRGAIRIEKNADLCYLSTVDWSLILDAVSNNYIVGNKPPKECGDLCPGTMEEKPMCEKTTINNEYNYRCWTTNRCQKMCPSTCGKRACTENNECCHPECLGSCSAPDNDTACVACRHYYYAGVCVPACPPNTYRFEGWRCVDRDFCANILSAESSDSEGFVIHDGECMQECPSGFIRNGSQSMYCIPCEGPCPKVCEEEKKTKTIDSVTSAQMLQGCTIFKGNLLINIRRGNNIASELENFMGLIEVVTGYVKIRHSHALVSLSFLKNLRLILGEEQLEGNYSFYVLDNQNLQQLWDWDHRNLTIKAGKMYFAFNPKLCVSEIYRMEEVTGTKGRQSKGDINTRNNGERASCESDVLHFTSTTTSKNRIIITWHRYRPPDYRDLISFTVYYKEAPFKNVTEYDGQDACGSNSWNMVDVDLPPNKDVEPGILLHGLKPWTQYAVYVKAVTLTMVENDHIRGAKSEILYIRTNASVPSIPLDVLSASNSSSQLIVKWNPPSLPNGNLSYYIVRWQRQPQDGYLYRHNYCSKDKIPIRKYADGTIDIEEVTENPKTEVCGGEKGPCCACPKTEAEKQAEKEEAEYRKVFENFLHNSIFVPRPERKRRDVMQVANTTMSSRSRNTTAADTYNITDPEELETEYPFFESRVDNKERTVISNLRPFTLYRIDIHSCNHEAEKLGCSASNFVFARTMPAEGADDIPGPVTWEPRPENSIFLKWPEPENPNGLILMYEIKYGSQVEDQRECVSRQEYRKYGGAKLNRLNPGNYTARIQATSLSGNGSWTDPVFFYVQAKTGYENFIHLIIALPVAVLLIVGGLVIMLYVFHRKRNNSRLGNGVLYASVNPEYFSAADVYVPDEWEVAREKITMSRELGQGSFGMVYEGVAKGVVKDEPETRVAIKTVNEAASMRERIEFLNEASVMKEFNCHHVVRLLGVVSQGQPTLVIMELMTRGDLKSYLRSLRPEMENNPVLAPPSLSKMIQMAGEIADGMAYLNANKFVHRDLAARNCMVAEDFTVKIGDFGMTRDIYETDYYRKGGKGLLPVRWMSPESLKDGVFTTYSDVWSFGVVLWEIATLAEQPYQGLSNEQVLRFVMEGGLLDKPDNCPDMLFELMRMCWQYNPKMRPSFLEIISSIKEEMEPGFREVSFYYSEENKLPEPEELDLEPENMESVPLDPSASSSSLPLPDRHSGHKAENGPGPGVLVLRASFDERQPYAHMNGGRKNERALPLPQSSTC
HER-4 (erbB-4), human receptor, sequence (Q15303 26-1308 limits assumed): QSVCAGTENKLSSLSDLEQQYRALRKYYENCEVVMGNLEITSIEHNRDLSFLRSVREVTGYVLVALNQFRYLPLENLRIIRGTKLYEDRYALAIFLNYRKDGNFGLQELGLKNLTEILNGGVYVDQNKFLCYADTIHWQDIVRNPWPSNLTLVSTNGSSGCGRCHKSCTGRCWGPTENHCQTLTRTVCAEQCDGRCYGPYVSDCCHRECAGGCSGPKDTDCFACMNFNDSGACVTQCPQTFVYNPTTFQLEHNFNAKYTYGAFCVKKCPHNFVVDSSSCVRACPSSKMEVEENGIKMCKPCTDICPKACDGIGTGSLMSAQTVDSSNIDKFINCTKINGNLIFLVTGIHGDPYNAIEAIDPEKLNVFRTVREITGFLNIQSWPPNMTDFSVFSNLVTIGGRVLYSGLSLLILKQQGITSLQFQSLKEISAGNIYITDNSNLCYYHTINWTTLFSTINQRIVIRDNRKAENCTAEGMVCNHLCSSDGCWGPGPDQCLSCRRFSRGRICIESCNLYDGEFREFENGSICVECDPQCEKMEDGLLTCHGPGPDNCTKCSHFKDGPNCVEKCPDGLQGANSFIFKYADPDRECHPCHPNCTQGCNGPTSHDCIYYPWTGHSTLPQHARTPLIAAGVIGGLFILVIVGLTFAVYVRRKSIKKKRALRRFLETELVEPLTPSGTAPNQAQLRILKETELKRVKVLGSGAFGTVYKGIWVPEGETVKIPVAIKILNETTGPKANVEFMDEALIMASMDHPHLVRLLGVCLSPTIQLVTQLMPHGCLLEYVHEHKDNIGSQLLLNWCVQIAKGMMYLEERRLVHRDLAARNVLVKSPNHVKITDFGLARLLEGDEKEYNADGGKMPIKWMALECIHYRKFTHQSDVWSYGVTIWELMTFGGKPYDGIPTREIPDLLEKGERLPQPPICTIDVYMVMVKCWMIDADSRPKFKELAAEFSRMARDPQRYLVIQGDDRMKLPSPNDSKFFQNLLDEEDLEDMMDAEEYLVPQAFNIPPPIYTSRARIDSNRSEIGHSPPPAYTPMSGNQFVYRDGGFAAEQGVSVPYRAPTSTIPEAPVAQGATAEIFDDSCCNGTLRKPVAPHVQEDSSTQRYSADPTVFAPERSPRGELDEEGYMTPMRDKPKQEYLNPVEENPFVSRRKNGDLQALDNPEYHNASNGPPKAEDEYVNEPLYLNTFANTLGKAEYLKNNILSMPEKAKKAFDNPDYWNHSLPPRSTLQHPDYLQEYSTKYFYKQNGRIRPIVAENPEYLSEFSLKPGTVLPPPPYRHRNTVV

Binder | binding result [1] | Kd [2] [nM] | Kd [3] [nM] | Kd [4] [nM] | Kd [5] [nM] | Kd [6] [nM] | Kd [7] [nM] | fold weaker binding than the wildtype peptide [8] [fold] | fold weaker binding than the wild type sequence (SEQ ID NO:24) [9] [fold]
B1 | binds | 40 | 66 | 70 | 40 to 150 | 78 | 50 | – | –
B2 | – | – | – | – | – | – | – | ~2 | ~2
